Reference: patent US20030175273A1 (Kyowa Kirin, published 2003)
Ends that are not written are not given here.

Experiments:
[1] = biological target: T1, human CC chemokine receptor 4 (CCR4) on CCR4/EL-4 cells (human, UniProt P51679 1-360); experiment: flow cytometry on CCR4/EL-4 cells, antibody at 10 µg/ml
T1 construct: also called hCCR4; human CCR4-high-expressing cell
T1 sequence: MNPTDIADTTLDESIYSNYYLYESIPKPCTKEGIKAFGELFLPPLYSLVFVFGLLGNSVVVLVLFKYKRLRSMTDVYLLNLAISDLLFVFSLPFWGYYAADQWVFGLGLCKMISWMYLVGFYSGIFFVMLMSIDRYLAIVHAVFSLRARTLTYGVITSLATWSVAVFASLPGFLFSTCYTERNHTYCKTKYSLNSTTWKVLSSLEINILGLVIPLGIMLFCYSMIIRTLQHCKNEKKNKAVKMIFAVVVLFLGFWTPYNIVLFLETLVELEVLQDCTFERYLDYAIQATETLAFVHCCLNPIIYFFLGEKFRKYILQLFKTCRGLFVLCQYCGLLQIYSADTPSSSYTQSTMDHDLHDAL
Procedure: Into a 96 well plate, 2×10⁵ or more of CCR4/EL-4 cells, CCR4-high-expressing cells obtained in Reference Example 3, were dispensed. An antibody solution was prepared by diluting each of the purified antibodies and a human immunoglobulin (manufactured by Welfide) for preventing nonspecific staining to give concentrations of 10 μg/ml and 3.75 mg/ml, respectively, with a buffer for FACS, and the antibody solution was added at 100 μl/well and allowed to react for 30 minutes in ice. As a negative control, 10 μg/ml of an anti-human IL-5 receptor a chain antibody (WO 97/10354) was used. After washing twice with 200 μl/well of the buffer for FACS, a PE-labeled anti-human IgG antibody (manufactured by Coulter) diluted 100 times was added at 50 μl/well. After the reaction in ice under shading and subsequent washing three times with 200 μl/well of the buffer for FACS, the reaction product was suspended in 500 μl of the buffer for FACS and the fluorescence intensity was measured using a flow cytometer.

[2] = biological target: T2, biotinylated Compound 1 (biotinylated CCR4 partial peptide) (human, also: biotinylated, site not given here); experiment: BIAcore 2000, biotinylated Compound 1 on sensor tip SA, antibody at 4 µg/ml
T2 construct: Same peptide as in BSA-Compound 1
T2 peptide: DESIYSNYYLYESIPKPC
Procedure: In order to measure the binding activity in more detail, the binding activity of various purified antibodies was measured using BIAcore 2000 (manufactured by BIACORE) as follows. In this case, HBS-EP (manufactured by BIACORE) was used as the buffer for diluting samples and for the measurement. First, 5 μl of 0.05 μg/ml solution of Compound 1 as a biotinylated CCR4 partial peptide was added to a sensor tip SA (manufactured by BIACORE) at a flow rate of 5 μl/minute and immobilized on the sensor tip.
To the prepared biotinylated compound 1 -immobilized sensor tip, 20 μl of 4 μg/ml solution of each of the purified antibodies was added at a flow rate of 5 μl/minute, and after completion of the addition, the dissociation reaction was monitored for 4 minutes and then the sensor tip surface was regenerated by adding 5 μl of 10 mM HCl twice. In this way, a binding reaction curve (sensorgram) for Compound 1 was obtained.

[3] = biological target: T3, BSA-Compound 1 (human CCR4 extracellular region peptide Compound 1 conjugated with BSA) (human, also: conjugated to BSA through SMCC, site not given here); experiment: ELISA on BSA-Compound 1, purified antibody
T3 construct: the claims speak of positions 13 to 29; ELISA antigen; also called CCR4 partial peptide
T3 peptide: DESIYSNYYLYESIPKPC

[4] = biological target: T3, BSA-Compound 1 (human CCR4 …); experiment: ELISA on BSA-Compound 1, COS-7 culture supernatant
Procedure: Into a 96 well ELISA plate (manufactured by Greiner), 0.05 μg/ml of the prepared conjugate was dispensed in at 50 μl/well and allowed to stand at 4° C. overnight for adsorption. After washing with PBS, PBS containing 1% BSA (hereinafter referred to as “1% BSA-PBS”) was added thereto at 100 μl/well and allowed to react at room temperature for 1 hour to block the remaining active groups. After washing each well with PBS containing 0.05% Tween 20 (hereinafter referred to as “Tween-PBS”), a culture supernatant of the transformant was added at 50 μl/well and allowed to react at room temperature for 1 hour. After the reaction and subsequent washing of each well with Tween-PBS, a peroxidase-labeled goat anti-human IgG(γ) antibody solution (manufactured by American Qualex) diluted 6,000 folds with 1% BSA-PBS was added as a secondary antibody solution in 50 μl/well portions and allowed to react at room temperature for 1 hour After the reaction and subsequent washing with Tween-PBS, an ABTS substrate solution (a solution prepared by dissolving 0.55 g of […] ammonium in 1 liter of 0.1 M citrate buffer (pH 4.2) and adding 1 μl/ml hydrogen peroxide just before use) was added at 50 μl/well to develop color, and the reaction was stopped 20 minutes thereafter by adding 5% SDS solution at 50 μl/well. Thereafter, absorbance at 415 nm was measured.

Measured: binding result

B1: anti-CCR4 CDR-grafted antibody Ga10LV1 (antibody, human IgG1, V domains shown)
VH: EVQLVESGGDLVQPGRSLRLSCAASGFIFSNYGMSWVRQAPGKGLEWVATISSASTYSYYPDSVKGRFTISRDNAKNSLYLQMNSLRVEDTALYYCARHSDGNFAFGYWGQGTLVTVSS
VL: DVVMTQSPLSLPVTPGEPASISCRSSRNIVHINGDTYLEWYLQKPGQSPQLLIYKVSNRFSGVPDRFSGSGSGTDFTLKISRVEAEDVGVYYCFQGSLLPWTFGQGTKVEIK
notes: Tested as COS-7 supernatant and as purified antibody from YB2/0; also called pKM2160Ga10LV1
binds: [1] | [2] | [3]

B2: anti-CCR4 CDR-grafted antibody Ga10LV3 (antibody, human IgG1, V domains shown)
VH: EVQLVESGGDLVQPGRSLRLSCAASGFIFSNYGMSWVRQAPGKGLEWVATISSASTYSYYPDSVKGRFTISRDNAKNSLYLQMNSLRVEDTALYYCARHSDGNFAFGYWGQGTLVTVSS
VL: DVLMTQSPLSLPVTPGEPASISCRSSRNIVHINGDTYLEWYLQKPGQSPQLLIYKVSNRFSGVPDRFSGSGSGTDFTLKISRVEAEDVGVYYCFQGSLLPWTFGQGTKVEIK
notes: Tested as COS-7 supernatant and as purified antibody from YB2/0; also called pKM2160Ga10LV3
binds: [1] | [2] | [3]

B3: anti-CCR4 CDR-grafted antibody Ga11LV3 (antibody, human IgG1, V domains shown)
VH: EVQLVESGGDLVQPGRSLRLSCAASGFIFSNYGMSWVRQAPGKGLEWVATISSASTYSYYPDSVKGRFTISRDNAKNSLYLQMNSLRVEDTALYYCGRHSDGNFAFGYWGQGTLVTVSS
VL: DVLMTQSPLSLPVTPGEPASISCRSSRNIVHINGDTYLEWYLQKPGQSPQLLIYKVSNRFSGVPDRFSGSGSGTDFTLKISRVEAEDVGVYYCFQGSLLPWTFGQGTKVEIK
notes: Tested as COS-7 supernatant and as purified antibody from YB2/0; also called pKANTEX2160Ga11LV3; antibody of producing cell KM8760 (FERM BP-8130)
binds: [1] | [2] | [3]

B4: anti-CCR4 CDR-grafted antibody Ga12LV3 (antibody, human IgG1, V domains shown)
VH: EVQLVESGGDLVQPGRSLRLSCAASGFIFSNYGMSWVRQAPDKRLEWVATISSASTYSYYPDSVKGRFTISRDNAKNSLYLQMNSLRVEDTALYYCARHSDGNFAFGYWGQGTLVTVSS
VL: DVLMTQSPLSLPVTPGEPASISCRSSRNIVHINGDTYLEWYLQKPGQSPQLLIYKVSNRFSGVPDRFSGSGSGTDFTLKISRVEAEDVGVYYCFQGSLLPWTFGQGTKVEIK
notes: Tested as COS-7 supernatant and as purified antibody from YB2/0; also called pKANTEX2160Ga12LV3; antibody of producing cell KM8759 (FERM BP-8129)
binds: [1] | [2] | [3]

B5: anti-CCR4 CDR-grafted antibody Ga13LV3 (antibody, human IgG1, V domains shown)
VH: EVQLVESGGDLVQPGRSLRLSCAASGFIFSNYGMSWVRQAPDKRLEWVATISSASTYSYYPDSVKGRFTISRDNAKNSLYLQMNSLRVEDTALYYCGRHSDGNFAFGYWGQGTLVTVSS
VL: DVLMTQSPLSLPVTPGEPASISCRSSRNIVHINGDTYLEWYLQKPGQSPQLLIYKVSNRFSGVPDRFSGSGSGTDFTLKISRVEAEDVGVYYCFQGSLLPWTFGQGTKVEIK
notes: Tested as COS-7 supernatant and as purified antibody from YB2/0; also called pKM2160Ga13LV3
binds: [1] | [2] | [4]

B6: anti-CCR4 CDR-grafted antibody Ga12LV1 (antibody, human IgG1, V domains shown)
VH: EVQLVESGGDLVQPGRSLRLSCAASGFIFSNYGMSWVRQAPDKRLEWVATISSASTYSYYPDSVKGRFTISRDNAKNSLYLQMNSLRVEDTALYYCARHSDGNFAFGYWGQGTLVTVSS
VL: DVVMTQSPLSLPVTPGEPASISCRSSRNIVHINGDTYLEWYLQKPGQSPQLLIYKVSNRFSGVPDRFSGSGSGTDFTLKISRVEAEDVGVYYCFQGSLLPWTFGQGTKVEIK
notes: Tested as COS-7 supernatant and as purified antibody from YB2/0; also called pKM2160Ga12LV1
binds: [1] | [2] | [3]

B7: anti-CCR4 CDR-grafted antibody Ga11LV1 (antibody, human IgG1, V domains shown)
VH: EVQLVESGGDLVQPGRSLRLSCAASGFIFSNYGMSWVRQAPGKGLEWVATISSASTYSYYPDSVKGRFTISRDNAKNSLYLQMNSLRVEDTALYYCGRHSDGNFAFGYWGQGTLVTVSS
VL: DVVMTQSPLSLPVTPGEPASISCRSSRNIVHINGDTYLEWYLQKPGQSPQLLIYKVSNRFSGVPDRFSGSGSGTDFTLKISRVEAEDVGVYYCFQGSLLPWTFGQGTKVEIK
notes: Tested as COS-7 supernatant and as purified antibody from YB2/0; also called pKM2160Ga11 LV1
binds: [1] | [2] | [3]

B8: anti-CCR4 CDR-grafted antibody Ga13LV1 (antibody, human IgG1, V domains shown)
VH: EVQLVESGGDLVQPGRSLRLSCAASGFIFSNYGMSWVRQAPDKRLEWVATISSASTYSYYPDSVKGRFTISRDNAKNSLYLQMNSLRVEDTALYYCGRHSDGNFAFGYWGQGTLVTVSS
VL: DVVMTQSPLSLPVTPGEPASISCRSSRNIVHINGDTYLEWYLQKPGQSPQLLIYKVSNRFSGVPDRFSGSGSGTDFTLKISRVEAEDVGVYYCFQGSLLPWTFGQGTKVEIK
notes: Tested as COS-7 supernatant and as purified antibody from YB2/0; also called pKM2160Ga13LV 1
binds: [1] | [2] | [4]
